Changes are numbered by the printed parent chain. Numbered stars: 1 amine (or outer) side, 2 acyl side, 3 side chain; on linkers, the order of the positions; unused ones are H or OH. Square brackets hold non-standard residues; d marks the D form. Side chains are listed from the residue outwards. Ends that are not written are not given here. * marks the point of attachment. C20 diacid = O=C(O)CCCCCCCCCCCCCCCCCCC(=O)*; γGlu = O=C(O)[C@H](CCC(=O)[*:2])N[*:1]; AEEA = NCCOCCOCC(=O)O; Aib = CC(C)(N)C(=O)O
B1: Peptide 219 (peptide)
peptide: YXEGTXTSDYSIXLDEKAQXEFIXYLIEGGPSSG
modifications: Aib2; αMeF(2F)6; αMeL13; K17((2-[2-(2-Amino-ethoxy)-ethoxy]-acetyl)2-(γGlu)-CO-(CH2)16-CO2H); Aib20; D-Glu24; C-terminal NH2
B2: Peptide 228 (peptide)
peptide: B1 peptide with E16K
modifications: Aib2; αMeF6; αMeL13; K17((2-[2-(2-Amino-ethoxy)-ethoxy]-acetyl)2-(γGlu)-CO-(CH2)18-CO2H); Aib20; D-Glu24; C-terminal NH2
B3: Peptide 29 (peptide)
peptide: Y[Aib]EGTFTSDYSILLDK([AEEA-AEEA-γGlu-C20 diacid])IAQ[Aib]AFIEYLIEGGPSSGAPPPS-NH2
modifications: N-terminus assumed
SMILES: CC[C@H](C)[C@H](NC(=O)[C@H](CCCCNC(=O)COCCOCCNC(=O)COCCOCCNC(=O)CC[C@H](NC(=O)CCCCCCCCCCCCCCCCCCC(=O)O)C(=O)O)NC(=O)[C@H](CC(=O)O)NC(=O)[C@H](CC(C)C)NC(=O)[C@H](CC(C)C)NC(=O)[C@@H](NC(=O)[C@H](CO)NC(=O)[C@H](Cc1ccc(O)cc1)NC(=O)[C@H](CC(=O)O)NC(=O)[C@H](CO)NC(=O)[C@@H](NC(=O)[C@H](Cc1ccccc1)NC(=O)[C@@H](NC(=O)CNC(=O)[C@H](CCC(=O)O)NC(=O)C(C)(C)NC(=O)[C@@H](N)Cc1ccc(O)cc1)[C@@H](C)O)[C@@H](C)O)[C@@H](C)CC)C(=O)N[C@@H](C)C(=O)N[C@@H](CCC(N)=O)C(=O)NC(C)(C)C(=O)N[C@@H](C)C(=O)N[C@@H](Cc1ccccc1)C(=O)N[C@H](C(=O)N[C@@H](CCC(=O)O)C(=O)N[C@@H](Cc1ccc(O)cc1)C(=O)N[C@@H](CC(C)C)C(=O)N[C@H](C(=O)N[C@@H](CCC(=O)O)C(=O)NCC(=O)NCC(=O)N1CCC[C@H]1C(=O)N[C@@H](CO)C(=O)N[C@@H](CO)C(=O)NCC(=O)N[C@@H](C)C(=O)N1CCC[C@H]1C(=O)N1CCC[C@H]1C(=O)N1CCC[C@H]1C(=O)N[C@@H](CO)C(N)=O)[C@@H](C)CC)[C@@H](C)CC
B4: Peptide 210 (peptide)
peptide: YXEGTXTSDYSIXLDXKAQXEFIXYLIEGGPSSGAPPPS
modifications: Aib2; αMeF(2F)6; αMeL13; Dap16; K17((2-[2-(2-Amino-ethoxy)-ethoxy]-acetyl)2-(γGlu)-CO-(CH2)16-CO2H); Aib20; D-Glu24; C-terminal NH2
B5: Peptide 212 (peptide)
peptide: B4 peptide with X16K
modifications: Aib2; αMeF(2F)6; αMeL13; K17((2-[2-(2-Amino-ethoxy)-ethoxy]-acetyl)2-(γGlu)-CO-(CH2)18-CO2H); Aib20; D-Glu24; C-terminal NH2
B6: Peptide 227 (peptide)
peptide: B4 peptide with X16E
modifications: Aib2; αMeF6; αMeL13; K17((2-[2-(2-Amino-ethoxy)-ethoxy]-acetyl)2-(γGlu)-CO-(CH2)18-CO2H); Aib20; D-Glu24; C-terminal NH2
B7: Peptide 217 (peptide)
peptide: B4 peptide
modifications: Aib2; αMeF(2F)6; αMeL13; Dab16; K17((2-[2-(2-Amino-ethoxy)-ethoxy]-acetyl)2-(γGlu)-CO-(CH2)18-CO2H); Aib20; D-Glu24; C-terminal NH2
B8: Peptide 223 (peptide)
peptide: B4 peptide with X16E, X24E, Y25X
modifications: Aib2; αMeF(2F)6; αMeL13; K17((2-[2-(2-Amino-ethoxy)-ethoxy]-acetyl)2-(γGlu)-CO-(CH2)18-CO2H); Aib20; αMeY25; C-terminal NH2
B9: Peptide 244 (peptide)
peptide: B4 peptide with Y10L, E21A, Y25X
modifications: not fully specified; Aib2; αMeF(2F)6; αMeL13; Orn16; K17((2-[2-(2-Amino-ethoxy)-ethoxy]-acetyl)2-(γGlu)-CO-(CH2)16-CO2H); Aib20; D-Glu24; αMeY25; C-terminal NH2
B10: Peptide 222 (peptide)
peptide: B4 peptide with X16E, Y25X
modifications: Aib2; αMeF(2F)6; αMeL13; K17((2-[2-(2-Amino-ethoxy)-ethoxy]-acetyl)2-(γGlu)-CO-(CH2)18-CO2H); Aib20; D-Glu24; αMeY25; C-terminal NH2
B11: Peptide 215 (peptide)
peptide: B4 peptide with X16E
modifications: Aib2; αMeF(2F)6; αMeL13; K17((2-[2-(2-Amino-ethoxy)-ethoxy]-acetyl)2-CO-(CH2)18-CO2H); Aib20; D-Glu24; C-terminal NH2
B12: Peptide 238 (peptide)
peptide: B4 peptide with Y10L, Y25X
modifications: not fully specified; Aib2; αMeF(2F)6; αMeL13; Orn16; K17((2-[2-(2-Amino-ethoxy)-ethoxy]-acetyl)2-(γGlu)-CO-(CH2)16-CO2H); Aib20; D-Glu24; αMeY25; C-terminal NH2
B13: Peptide 224 (peptide)
peptide: B4 peptide with X16E
modifications: Aib2; αMeF(2F)6; Aib13; K17((2-[2-(2-Amino-ethoxy)-ethoxy]-acetyl)2-(γGlu)-CO-(CH2)18-CO2H); Aib20; D-Glu24; C-terminal NH2
B14: Peptide 230 (peptide)
peptide: B4 peptide with X16H
modifications: Aib2; αMeF(2F)6; αMeL13; K17((2-[2-(2-Amino-ethoxy)-ethoxy]-acetyl)2-(γGlu)-CO-(CH2)18-CO2H); Aib20; D-Glu24; C-terminal NH2
B15: Peptide 233 (peptide)
peptide: B4 peptide with Y10X
modifications: not fully specified; Aib2; αMeF(2F)6; 4Pal10; αMeL13; Dab16; K17((2-[2-(2-Amino-ethoxy)-ethoxy]-acetyl)2-(γGlu)-CO-(CH2)16-CO2H); Aib20; D-Glu24; C-terminal NH2
B16: Peptide 241 (peptide)
peptide: B4 peptide with Y10V, E21T, Y25X
modifications: not fully specified; Aib2; αMeF(2F)6; αMeL13; Orn16; K17((2-[2-(2-Amino-ethoxy)-ethoxy]-acetyl)2-(γGlu)-CO-(CH2)16-CO2H); Aib20; D-Glu24; αMeY25; C-terminal NH2
B17: Peptide 216 (peptide)
peptide: B4 peptide with X16E
modifications: Aib2; αMeF(2F)6; αMeL13; K17((2-[2-(2-Amino-ethoxy)-ethoxy]-acetyl)2-(εK)-CO-(CH2)18-CO2H); Aib20; D-Glu24; C-terminal NH2
B18: Peptide 221 (peptide)
peptide: B4 peptide with X16E
modifications: Aib2; αMeF(2F)6; αMeL13; K17((2-[2-(2-Amino-ethoxy)-ethoxy]-acetyl)2-(γGlu)-CO-(CH2)16-CO2H); Aib20; D-Glu24; C-terminal NH2
B19: Peptide 213 (peptide)
peptide: B4 peptide with X16E
modifications: Aib2; αMeF6; αMeL13; K17((2-[2-(2-Amino-ethoxy)-ethoxy]-acetyl)2-(γGlu)-CO-(CH2)16-CO2H); Aib20; D-Glu24; C-terminal NH2
B20: Peptide 242 (peptide)
peptide: B4 peptide with Y10V, E21A, Y25X
modifications: not fully specified; Aib2; αMeF(2F)6; αMeL13; Orn16; K17((2-[2-(2-Amino-ethoxy)-ethoxy]-acetyl)2-(γGlu)-CO-(CH2)16-CO2H); Aib20; D-Glu24; αMeY25; C-terminal NH2
B21: Peptide 214 (peptide)
peptide: B4 peptide with X16E
modifications: Aib2; αMeF(2F)6; αMeL13; K17((2-[2-(2-Amino-ethoxy)-ethoxy]-acetyl)2-CO-(CH2)16-CO2H); Aib20; D-Glu24; C-terminal NH2
B22: Peptide 239 (peptide)
peptide: B4 peptide with Y10X, E21T, Y25X
modifications: not fully specified; Aib2; αMeF(2F)6; 4Pal10; αMeL13; Orn16; K17((2-[2-(2-Amino-ethoxy)-ethoxy]-acetyl)2-(γGlu)-CO-(CH2)16-CO2H); Aib20; D-Glu24; αMeY25; C-terminal NH2
B23: Peptide 243 (peptide)
peptide: B4 peptide with Y10L, E21T, Y25X
modifications: not fully specified; Aib2; αMeF(2F)6; αMeL13; Orn16; K17((2-[2-(2-Amino-ethoxy)-ethoxy]-acetyl)2-(γGlu)-CO-(CH2)16-CO2H); Aib20; D-Glu24; αMeY25; C-terminal NH2
B24: Peptide 211 (peptide)
peptide: B4 peptide with X16K
modifications: Aib2; αMeF(2F)6; αMeL13; K17((2-[2-(2-Amino-ethoxy)-ethoxy]-acetyl)-(γGlu)-(2-[2-(2-Amino-ethoxy)-ethoxy]-acetyl)-CO-(CH2)18-CO2H); Aib20; D-Glu24; C-terminal NH2
B25: Peptide 246 (peptide)
peptide: B4 peptide with Y10A, E21A, Y25X
modifications: not fully specified; Aib2; αMeF(2F)6; αMeL13; Orn16; K17((2-[2-(2-Amino-ethoxy)-ethoxy]-acetyl)2-(γGlu)-CO-(CH2)16-CO2H); Aib20; D-Glu24; αMeY25; C-terminal NH2
B26: Peptide 218 (peptide)
peptide: B4 peptide
modifications: Aib2; αMeF(2F)6; αMeL13; Dap16; K17((2-[2-(2-Amino-ethoxy)-ethoxy]-acetyl)2-(γGlu)-CO-(CH2)18-CO2H); Aib20; D-Glu24; C-terminal NH2
B27: Peptide 236 (peptide)
peptide: B4 peptide with Y25X
modifications: not fully specified; Aib2; αMeF(2F)6; αMeL13; Orn16; K17((2-[2-(2-Amino-ethoxy)-ethoxy]-acetyl)2-(γGlu)-CO-(CH2)16-CO2H); Aib20; D-Glu24; αMeY25; C-terminal NH2
B28: Peptide 220 (peptide)
peptide: YXEGTXTSDYSIXLDEKAQXEFIXYLIEGG
modifications: Aib2; αMeF(2F)6; αMeL13; K17((2-[2-(2-Amino-ethoxy)-ethoxy]-acetyl)2-(γGlu)-CO-(CH2)16-CO2H); Aib20; D-Glu24; C-terminal NH2
B29: Peptide 26 (peptide)
peptide: Y[Aib]EGTFTSDYSIK([AEEA-AEEA-γGlu-C20 diacid])LDKIAQ[Aib]AFIEYLIEGGPSSGAPPPS-NH2
modifications: N-terminus assumed
SMILES: CC[C@H](C)[C@H](NC(=O)[C@H](CCCCN)NC(=O)[C@H](CC(=O)O)NC(=O)[C@H](CC(C)C)NC(=O)[C@H](CCCCNC(=O)COCCOCCNC(=O)COCCOCCNC(=O)CC[C@H](NC(=O)CCCCCCCCCCCCCCCCCCC(=O)O)C(=O)O)NC(=O)[C@@H](NC(=O)[C@H](CO)NC(=O)[C@H](Cc1ccc(O)cc1)NC(=O)[C@H](CC(=O)O)NC(=O)[C@H](CO)NC(=O)[C@@H](NC(=O)[C@H](Cc1ccccc1)NC(=O)[C@@H](NC(=O)CNC(=O)[C@H](CCC(=O)O)NC(=O)C(C)(C)NC(=O)[C@@H](N)Cc1ccc(O)cc1)[C@@H](C)O)[C@@H](C)O)[C@@H](C)CC)C(=O)N[C@@H](C)C(=O)N[C@@H](CCC(N)=O)C(=O)NC(C)(C)C(=O)N[C@@H](C)C(=O)N[C@@H](Cc1ccccc1)C(=O)N[C@H](C(=O)N[C@@H](CCC(=O)O)C(=O)N[C@@H](Cc1ccc(O)cc1)C(=O)N[C@@H](CC(C)C)C(=O)N[C@H](C(=O)N[C@@H](CCC(=O)O)C(=O)NCC(=O)NCC(=O)N1CCC[C@H]1C(=O)N[C@@H](CO)C(=O)N[C@@H](CO)C(=O)NCC(=O)N[C@@H](C)C(=O)N1CCC[C@H]1C(=O)N1CCC[C@H]1C(=O)N1CCC[C@H]1C(=O)N[C@@H](CO)C(N)=O)[C@@H](C)CC)[C@@H](C)CC
B30: Peptide 25 (peptide)
peptide: Y[Aib]EGTFTSDYSK([AEEA-AEEA-γGlu-C20 diacid])LLDKIAQ[Aib]AFIEYLIEGGPSSGAPPPS-NH2
modifications: N-terminus assumed
SMILES: CC[C@H](C)[C@H](NC(=O)[C@H](CCCCN)NC(=O)[C@H](CC(=O)O)NC(=O)[C@H](CC(C)C)NC(=O)[C@H](CC(C)C)NC(=O)[C@H](CCCCNC(=O)COCCOCCNC(=O)COCCOCCNC(=O)CC[C@H](NC(=O)CCCCCCCCCCCCCCCCCCC(=O)O)C(=O)O)NC(=O)[C@H](CO)NC(=O)[C@H](Cc1ccc(O)cc1)NC(=O)[C@H](CC(=O)O)NC(=O)[C@H](CO)NC(=O)[C@@H](NC(=O)[C@H](Cc1ccccc1)NC(=O)[C@@H](NC(=O)CNC(=O)[C@H](CCC(=O)O)NC(=O)C(C)(C)NC(=O)[C@@H](N)Cc1ccc(O)cc1)[C@@H](C)O)[C@@H](C)O)C(=O)N[C@@H](C)C(=O)N[C@@H](CCC(N)=O)C(=O)NC(C)(C)C(=O)N[C@@H](C)C(=O)N[C@@H](Cc1ccccc1)C(=O)N[C@H](C(=O)N[C@@H](CCC(=O)O)C(=O)N[C@@H](Cc1ccc(O)cc1)C(=O)N[C@@H](CC(C)C)C(=O)N[C@H](C(=O)N[C@@H](CCC(=O)O)C(=O)NCC(=O)NCC(=O)N1CCC[C@H]1C(=O)N[C@@H](CO)C(=O)N[C@@H](CO)C(=O)NCC(=O)N[C@@H](C)C(=O)N1CCC[C@H]1C(=O)N1CCC[C@H]1C(=O)N1CCC[C@H]1C(=O)N[C@@H](CO)C(N)=O)[C@@H](C)CC)[C@@H](C)CC

Biological target: human GLP-1 receptor (human, UniProt P43220 24-463)
Experiment: cell-based or functional assay

Binder	hGLPIR cAMP EC50 ratio
B1	1.03
B2	1.1
B3	0.0671
B4	1.03
B5	0.771
B6	1.07
B7	1.14
B8	0.962
B9	1.29
B10	1.55
B11	0.813
B12	1.15
B13	1.06
B14	0.599
B15	0.535
B16	1.89
B17	1.31
B18	0.795
B19	0.694
B20	1.96
B21	1.74
B22	0.987
B23	1.22
B24	1.28
B25	2.56
B26	1.02
B27	1.65
B28	1.36
B29	0.238
B30	0.197

— patent publication US20230293638A1 (Eli Lilly, published 2023)
